Tested on: K4 kissing-loop RNA reporter
Test: apparent KD of K4 kissing-loop reporter; higher = weaker reporter binding
Conditions: Eterna round: R107
Procedure: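 RNA-MaP round R107: designed RNA switches with theophylline, tryptophan, arginine or FMN aptamers are transcribed on-chip within common flanks. They are titrated with a labelled K4 kissing-loop RNA reporter in RNA-MaP buffer (100 mM Tris pH 7.5, 80 mM KCl, 4 mM MgCl2), without ligand or with the indicated ligand. Median apparent KD per design.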

[1] = input ligand: theophylline 20 uM
[2] = input ligand: tryptophan 2.4 mM
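Note: bound reporter read as fluorescence of individual clusters on recovered sequencing chips by microscopy, with normalized cluster intensities fitted with a binding model.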

Sequence	apparent KD of K4 kissing-loop reporter (input ligand: FMN 200 uM) [nM]	apparent KD of K4 kissing-loop reporter (input ligand: arginine 13.2 mM) [nM]	apparent KD of K4 kissing-loop reporter (input ligand: none) [nM]	apparent KD of K4 kissing-loop reporter [1] [nM]	apparent KD of K4 kissing-loop reporter [2] [nM]
GUGGCGACGCAAGGAUAUGGGUGCUAGUGAUGUUAGCCUUUGCUCCAUGUCACGUGGUCUGCACACCCAGAAGGUGCGGGAAGAU [theeternabot_exclusion_KL_FMN_B_9]	482	293	327	307	354
AAUACUAUCAGAAGGAGCGUGGAAUAUUCAUCUGUAUCUAAUACGAGUGAUGUUCGUAAUUCACAGGUAGGUCGCUGAUUAAUAC [whbob_Ex_Arginine_B_2th158]	265	245	288	304	245
CCAUCGCUAUUCGAUACCAGUCAGGAGGUCUUUGGCCUCCUAUUGGAGUGAUGUUCCAUAGACCCUUGGCAGCGAAUAGUGAUGG [Theophylline B K4 15]	822	255	834	613	510
AAACAUCACUGGGAGUGAUGUUCUCAGUGACGAGGACCGGUACGGCCGCCACUCGCGAGAGAUAUAAAUAAGUAAUGACAUCAUU [Excl Tryptophan A V1]	359	334	360	357	423
UGAUUUAACUGAAGGAGCGGCAAGAGAGAAGGAAAUAUAGUGAUGUUAUAUAAGAGAGAGAGCCAGGUAGGUCGCAGAGGGAGGA [ExArgB.E]	126	126	173	178	137
GCGCGUCAUGUCAGCGGUGACUUUGUCGAUACCAGCGCCGCAAGGCGCCCUUGGCAGCGACGCGCUGGAGUGAUGUUCCAGCGUG [#2 Exclusion - Theophylline A Attempt #12 (HarryS)]	135	126	134	154	126
CCUAUCUCUUACGAUACCAGUCAAUGAUAUUUUAUCAAUGCCCUCACCGAGUGAUGUUCGGACCCUUGGCAGCGUCUGGGAUAGG [pvppimullin]	223	170	212	190	191
AGUACGGACGCGGCCGCCACUCAGAAGAAGACGGUAGUGAUGUUACUGAUGGUGAGAACAAUAAAGAGGACCGGGUGUCGUGCAA [#06 K4 Tryptophan B Same State]	324	464	523	370	304
UUUGGAAGCGGUGUUGAUUAGGGAGCGGAAGGAGCGCCGAUUAUGGCAGGUAGGUCGCCGGAAUGUAGUGAUGUUGCAUAGAGGG [ExArgA.W]	209	234	202	263	83.9
UACUUUAAUUUAUAACUAUCUUUAUUUUGUCAGGAUAUCGUAUUGUCGAGAAGGGACUCUCUCAAGUGAUGUUUGAGAAAUCGUU [JR_SSFMNA_Sub024]	84.8	125	115	133	87.9
AGCUCAGAGUGACUCGAUAAGAGUCACAAACGAGGACCGGUACGGCCGCCACUCGAAAUAAGGAGAGUGAUGUUCUCGCUGAGCA [FiskerMod 8 - Jieux - Same State Tryptophan A]	454	81.5	124	35.1	345
AAGUGUGUGGCGGCCGCCACUAGAAUCCAGUGAUGUUGGAGAUAUCAUGUAAAUGAUAUCCAACAUAGGACCGGGCCAUAUAGAA [Same State - Tryptophan B (Freestyle 10)]	126	98	92.4	131	120
UUUGGUUUCUCGGCCGCCACUCGUUGUCUAUCGGCUUCAGGGAUAUAGUGAUGUUAUGUAUAGAAGAGGACCGGGAGAAGGUUUU [ExTryptoB.Dw]	467	602	603	864	398
CGAGUGAUGUUCGUUCGUUUAUUUCGGUGACAGGAUAUGCGGAAACGCAGAAGGGUCACCUUUGGGUUACCGGAAUUAACGUUAU [Ex FMN A 30]	640	455	561	414	584
GCCAGUGAUGUUGGCGAACCAACGCAUGCAGAGGAUAUUCGUUCUGGAAGAAGGCUGCAGCGUUAUCAAACGCAGUGAUGUUGCG [Same State FMN A GF 26]	179	134	150	165	129
GUUACGCAUGGAAGGAGCGCACUCCGAUUGGUCGACACAGUGAUGUUGUGGUUCGUUCGAAUGCAGGUAGGUCGCCAUGUGUAAC [Ex Arginine B K4 18]	165	143	175	145	150
GCCGUAGUUGGAAGGAGCGUGAAUGGCCUCUAUCCAAAGUGAUGUUUUGUUGAAGACUGUUCACAGGUAGGUCGCCAACUACGGC [#09 K4 Arginine B Same State]	145	130	133	134	132
CUACAUGCACAGGAGUGAUGUUUAUGGGCUCGAGGACCGGUACGGCCGCCACUCGUUAUGGCACGCAGUAGAUAUAGGCGAGGAA [theeternabot_sameState_KL_Trp_A_41]	615	381	605	448	871
UGAUAGGACAGAAGGAGCGGAAGUGAUGUUUCCAAUGGAUAAAAGGUGUCAAAGACACCCUUCCAGGUAGGUCGCUGUCCUAUCU [ArgBX 17 #Palindromic #SwitchBubble #StaticStem]	146	160	148	141	132
GGAUAGGAUAGAGGAUAUGGUUUAUGCAGAAAUAACUUAUUGUGUAAAUCCAUAGGGAGUGAUGUUCCAGAAGGCUGUCCUAUCG [MatMod 15 - Jieux - Exclusion - FMN B]	316	187	209	241	180
UGGAGUUGACGAAAAGUCAACUCCUGAGAUACCAGUGACGAAAGUCACCCUUGGCAGCUCACUGCCAGUGAUGUUGGUUUAUAAA [#OpenEnded 2]	167	135	134	266	130

Sequence	apparent KD of K4 kissing-loop reporter (input ligand: FMN 200 uM) [nM]	apparent KD of K4 kissing-loop reporter (input ligand: arginine 13.2 mM) [nM]	apparent KD of K4 kissing-loop reporter (input ligand: none) [nM]	apparent KD of K4 kissing-loop reporter [1] [nM]	apparent KD of K4 kissing-loop reporter [2] [nM]
GCCGUAGAUGGAAGGAGCGUGCCUUUCAGUUAUAGUGAUGUUAUAACCGAGGAACGGUUGGCACAGGUAGGUCGCCAUCUACGGC	178	90.2	109	112	121
GUACGCUCUCGAGUGAUGUUCGGUAAUCGCUAGGAUAUCGCUUUUGCGAGAAGGAGCGGAAUGAGGAAACUCGUUCUGAGUGUAC [FMN A 22]	452	295	447	325	476
UAGAGUCACAAGACAGUGAUGUUGUCUACUGAGGAUAUCAUGAAUAUGAGAAGGCAGUGUUGGAGGUCUCUAACAACAGACUCUG [FMN A SS t3]	237	227	389	370	280
GCAGGAUAGCGCGGUGCAGUGAUGUUGCACCGAGGACCGGUACGGCCGCCACUCGCUUAGAUAUCGUGUGAUGGGUAUGUCUAGA [theeternabot_exclusion_KL_Trp_A_8]	116	110	123	94	119
AUGCUUCAGUAAGGAUAUGGAGGCAGAGUGAAGAUUGUCGUGUAACCGAGUUAAGUGAUGUUUGAUCCAGAAGGUACAUGCGUGU [theeternabot_exclusion_KL_FMN_B_15]	926	561	885	379	605
AAGUGUUCUAGUGAUACCAGACAUUUCUAUUUUAUCUUUAUAGCUAAGUGAUGUUUAGCAGUCCCUUGGCAGCACUAUUUCACUA [JR_SSTheophyB_Sub017]	123	155	137	160	147
AUUUAUUCGUACUACUAGUGAUGUUAGUAACGAGGACCGGUACGGCCGCCACUCGAUUUGGCGAUUUUGUAUUUUUUAUUCUAUA [JR_SSTryptoA_Sub011]	324	321	359	328	192
UACAGGGAUAGUGAUGUUAUCCCAUGUGAUACCAGUGUCAUCCAACACCCUUGGCAGCAUACGGGCAGUGAUGUUGUUCUUGGUA [#17 K4 Theophylline A Exclusion]	91.7	75.4	91.6	77.5	84.3
CUCGAGUGAUGUUCGAUUAUGUAUACAGAUACCAGUGAAUUUUAACACCCUUGGCAGCUGGUAGAAUCAUUGUAAUUUUAACUAG [JR_ExcTheophyA_Sub001]	175	260	218	254	150
AGGUCCGAGCCCGGAAGGGCUCGGACCUGUUAGGAUAUGACGUGAUUCAGAAGGGAUGGGUGGAGUGAUGUUCCACCCGAGAGGG [#2 Same State - FMN A Attempt #20 (HarryS)]	105	89.3	91.2	102	109
GCCGUACGCAUGGAUACCAGUCAAGAUCAGUGAUGUUGAUCUUUUAUAGAGCCUACAUUUGACCCUUGGCAGCCAUGCGUACGGC	378	320	330	465	247
UUAUAUAAGGGAAGGAGCGCGUGGGCGCAGUGAUGUUGCGCCCGACAUCACUUCAACUUAACGCAGGUAGGUCGCCCUUUUAAUA [Arginine B (Excl) V4]	188	194	209	206	209
AGUGAUAUAUGAGGAUAUGGGUUUGUUAAUGAGUUUGUUUUAGUGUUGUUUGGUUAGUGAUGUUAUUUAGAAGGCGUGAGUGAUG [vxxexmullin]	130	80.5	82.4	127	72
GGAUAGGACAGAGGAUAUGGUAGCUAGGCAAGAAUAACUUGUCUAGCAUCCAUGAGGAGUGAUGUUCCAGAAGGCUGUCCUAUCG [FmnBX 5 - #SwitchBubble #StaticStem]	235	145	211	150	165
GGAGUUACCUGGGAUACCAGUCGGAGUCCCAGAGCUCAGAGUGAUGUUCUGGGAUGUUUCGGCCCUUGGCAGCUCUGGGACUCCC [#2 Exclusion - Theophylline B Attempt #12 (HarryS)]	535	509	637	599	466
GGUGUUGUUUGUGCUGUUUUCUUUGUUUCUCGAGGACCGGUACGGCCGCCACUCGAGUGAUGUUUGGGUAGCGAUGUUUGUUAGU [Bdazzled - #2 - Exc. Tryptophan A]	463	280	355	383	411
CCCUCACGAGUGAUGUUCGUAGGGUACAGUCAGGAUAUCAUGCGGUUGAGAAGGGACAGAGAAGGCGGCGACGGGUUGCUUAUCU [Atenus]	206	243	277	200	218
AGACUUCACCGAAGGAGCGACGUGGCCUAGUGAUGUUAGGUACGAGAGAAAUCUCGUAUACGUCAGGUAGGUCGCGGUGAAGUCA [Omei KL Arginine B SS C v8]	868	643	997	721	830
AGGCACGAGCAAGGAUAUCGAGUAGAGUGAUGUUCUGCCUGGGUUGGCUCGAAAGAGCCUUCUCAGCGAGAAGGUGCUCGUGCCU [#2 Same State - FMN A Attempt #21 (HarryS)]	248	604	982	638	751
UAGUCCUAGUGAUCCUUAUCAAGUGGUGGGCGAGGACCGGUACGGCCGCCACUCGACUAUGCAGUGAUGUUGCAAUCCGGACAAU [Exclusion - Tryptophan A (Freestyle 13)]	191	211	194	243	179
GCAGACACGCAGUGAUGUUGCGAAACGGAAGGAGCGCGUGAAAACGCAGGUAGGUCGCCGACACAUUAAUUAUAAUUUUGUUUGC [Arginine A K4 15]	279	241	270	274	200

— the supplement of paper PMC9170038
